Target: human EphA2 ligand-binding domain (LBD) (human) (UniProt P29317)
Assay: SPR

Chain of KSHV gHgL (Kaposi sarcoma-associated herpesvirus glycoprotein H / glycoprotein L complex) (F5HAK9 22-698): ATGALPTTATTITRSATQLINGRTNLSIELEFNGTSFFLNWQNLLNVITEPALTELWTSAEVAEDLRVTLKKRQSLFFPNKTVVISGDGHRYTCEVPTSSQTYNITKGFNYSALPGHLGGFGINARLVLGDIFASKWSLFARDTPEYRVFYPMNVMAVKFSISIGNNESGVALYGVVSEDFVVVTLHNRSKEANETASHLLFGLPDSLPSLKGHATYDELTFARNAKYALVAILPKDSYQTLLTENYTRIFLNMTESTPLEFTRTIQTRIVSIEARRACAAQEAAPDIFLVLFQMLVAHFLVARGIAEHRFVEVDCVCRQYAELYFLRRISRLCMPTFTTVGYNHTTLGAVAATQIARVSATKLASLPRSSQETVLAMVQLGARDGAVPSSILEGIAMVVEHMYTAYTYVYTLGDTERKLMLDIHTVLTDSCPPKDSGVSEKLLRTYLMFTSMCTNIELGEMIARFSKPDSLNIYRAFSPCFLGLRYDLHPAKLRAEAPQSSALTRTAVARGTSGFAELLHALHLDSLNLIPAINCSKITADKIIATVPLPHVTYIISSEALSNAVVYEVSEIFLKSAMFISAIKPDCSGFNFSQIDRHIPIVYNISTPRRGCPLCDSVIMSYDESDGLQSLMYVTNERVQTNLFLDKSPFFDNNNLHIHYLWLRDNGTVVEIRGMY
Chain of KSHV gHgL (Kaposi sarcoma-associated herpesvirus glycoprotein H / glycoprotein L complex) (F5HDB7 21-167): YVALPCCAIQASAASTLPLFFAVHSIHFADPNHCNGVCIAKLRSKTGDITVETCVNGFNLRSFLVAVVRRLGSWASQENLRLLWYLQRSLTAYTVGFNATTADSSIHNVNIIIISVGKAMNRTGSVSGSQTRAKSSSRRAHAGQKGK
Chain of EBV gHgL (Epstein-Barr virus glycoprotein H / glycoprotein L complex) (P03231 18-679): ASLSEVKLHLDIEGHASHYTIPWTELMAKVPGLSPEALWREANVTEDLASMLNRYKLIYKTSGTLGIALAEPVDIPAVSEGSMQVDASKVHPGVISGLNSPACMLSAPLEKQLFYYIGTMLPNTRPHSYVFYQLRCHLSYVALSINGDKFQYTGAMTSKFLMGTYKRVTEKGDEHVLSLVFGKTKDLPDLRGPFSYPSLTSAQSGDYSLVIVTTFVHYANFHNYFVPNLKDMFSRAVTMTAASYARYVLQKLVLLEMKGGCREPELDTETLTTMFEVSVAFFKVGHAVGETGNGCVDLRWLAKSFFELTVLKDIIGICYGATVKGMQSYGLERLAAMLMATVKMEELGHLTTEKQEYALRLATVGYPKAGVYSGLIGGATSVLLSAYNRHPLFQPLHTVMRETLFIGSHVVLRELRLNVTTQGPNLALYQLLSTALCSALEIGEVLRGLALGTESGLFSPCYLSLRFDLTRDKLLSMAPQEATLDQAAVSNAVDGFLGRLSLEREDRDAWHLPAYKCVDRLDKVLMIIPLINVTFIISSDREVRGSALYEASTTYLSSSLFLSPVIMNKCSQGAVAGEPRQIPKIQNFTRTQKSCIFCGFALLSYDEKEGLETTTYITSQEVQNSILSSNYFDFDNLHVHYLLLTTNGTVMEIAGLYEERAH
Chain of EBV gHgL (Epstein-Barr virus glycoprotein H / glycoprotein L complex) (P03212 24-137): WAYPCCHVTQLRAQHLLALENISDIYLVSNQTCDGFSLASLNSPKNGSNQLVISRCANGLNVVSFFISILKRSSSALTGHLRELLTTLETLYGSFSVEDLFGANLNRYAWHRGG

| Substance | Kd [nM] |
| --- | --- |
| EBV gHgL (Epstein-Barr virus glycoprotein H / glycoprotein L complex) (from UniProt P03231;P03212) | 4120 |
| KSHV gHgL (Kaposi sarcoma-associated herpesvirus glycoprotein H / glycoprotein L complex) (from UniProt F5HAK9;F5HDB7) | 17.5 |

— article PMC7687889
